Laboratory results reported in the Human Domainome abundance scans (Beltran et al. 2025).
± gives the uncertainty stated by the source.

B1: Calcium-binding protein 2, residues 155 to 219; numbered along this chain, Q9NPB3 (parent)
chain: RELRDAFREFDTNGDGRISVGELRAALKALLGERLSQREVDEILQDVDLNGDGLVDFEEFVRMMS

Variants of: B1
Assay: abundance fitness (aPCA) (normalised: wild type 0, dead -1); higher = more abundant; growth selection in yeast, the domain comes from the species named
Settings: Homo sapiens

Row | Variant | abundance fitness
1 | RELRDAFREFDTNGDGRISVGELRAALKALLGELLSQREVDEILQDVDLNGDGLVDFEEFVRMMS | -0.177 ± 0.06
2 | RELRDAFREFDTNGDGRISVGELRAALKALLGEELSQREVDEILQDVDLNGDGLVDFEEFVRMMS | 0.14 ± 0.076
3 | RELRDAFREFDTNGDGRISVGELRAALKALLGEWLSQREVDEILQDVDLNGDGLVDFEEFVRMMS | -0.558 ± 0.22
4 | RELRDAFREFDTNGDGRISVGELRAALKALLGEQLSQREVDEILQDVDLNGDGLVDFEEFVRMMS | 0.088 ± 0.11
5 | RELRDAFREFDTNGDGRISVGELRAALKALLGEVLSQREVDEILQDVDLNGDGLVDFEEFVRMMS | -0.129 ± 0.088
6 | RELRDAFREFDTNGDGRISVGELRAALKALLGEMLSQREVDEILQDVDLNGDGLVDFEEFVRMMS | -0.207 ± 0.088
7 | RELRDAFREFDTNGDGRISVGELRAALKALLGECLSQREVDEILQDVDLNGDGLVDFEEFVRMMS | 0.056 ± 0.1
8 | RELRDAFREFDTNGDGRISVGELRAALKALLGEGLSQREVDEILQDVDLNGDGLVDFEEFVRMMS | 0.032 ± 0.077
9 | RELRDAFREFDTNGDGRISVGELRAALKALLGEALSQREVDEILQDVDLNGDGLVDFEEFVRMMS | 0.045 ± 0.084
10 | RELRDAFREFDTNGDGRISVGELRAALKALLGEPLSQREVDEILQDVDLNGDGLVDFEEFVRMMS | 0.01 ± 0.12
11 | RELRDAFREFDTNGDGRISVGELRAALKALLGEKLSQREVDEILQDVDLNGDGLVDFEEFVRMMS | 0.187 ± 0.092
12 | RELRDAFREFDTNGDGRISVGELRAALKALLGENLSQREVDEILQDVDLNGDGLVDFEEFVRMMS | 0.043 ± 0.3
13 | RELRDAFREFDTNGDGRISVGELRAALKALLGEFLSQREVDEILQDVDLNGDGLVDFEEFVRMMS | -0.298 ± 0.24
14 | RELRDAFREFDTNGDGRISVGELRAALKALLGETLSQREVDEILQDVDLNGDGLVDFEEFVRMMS | 0.018 ± 0.062
15 | RELRDAFREFDTNGDGRISVGELRAALKALLGESLSQREVDEILQDVDLNGDGLVDFEEFVRMMS | -0.019 ± 0.071
16 | RELRDAFREFDTNGDGRISVGELRAALKALLGERHSQREVDEILQDVDLNGDGLVDFEEFVRMMS | 0.061 ± 0.18
17 | RELRDAFREFDTNGDGRISVGELRAALKALLGERTSQREVDEILQDVDLNGDGLVDFEEFVRMMS | 0.028 ± 0.14
18 | RELRDAFREFDTNGDGRISVGELRAALKALLGERSSQREVDEILQDVDLNGDGLVDFEEFVRMMS | -0.031 ± 0.073
19 | RELRDAFREFDTNGDGRISVGELRAALKALLGERWSQREVDEILQDVDLNGDGLVDFEEFVRMMS | 0.045 ± 0.087
20 | RELRDAFREFDTNGDGRISVGELRAALKALLGERFSQREVDEILQDVDLNGDGLVDFEEFVRMMS | -0.257 ± 0.12
21 | RELRDAFREFDTNGDGRISVGELRAALKALLGERGSQREVDEILQDVDLNGDGLVDFEEFVRMMS | 0.088 ± 0.069

Row | Variant | abundance fitness
22 | RELRDAFREFDTNGDGRISVGELRAALKALLGERISQREVDEILQDVDLNGDGLVDFEEFVRMMS | 0.087 ± 0.15
23 | RELRDAFREFDTNGDGRISVGELRAALKALLGERASQREVDEILQDVDLNGDGLVDFEEFVRMMS | 0.1 ± 0.082
24 | RELRDAFREFDTNGDGRISVGELRAALKALLGERKSQREVDEILQDVDLNGDGLVDFEEFVRMMS | 0.244 ± 0.17
25 | RELRDAFREFDTNGDGRISVGELRAALKALLGERDSQREVDEILQDVDLNGDGLVDFEEFVRMMS | 0.064 ± 0.076
26 | RELRDAFREFDTNGDGRISVGELRAALKALLGERYSQREVDEILQDVDLNGDGLVDFEEFVRMMS | 0.015 ± 0.16
27 | RELRDAFREFDTNGDGRISVGELRAALKALLGERPSQREVDEILQDVDLNGDGLVDFEEFVRMMS | -0.02 ± 0.087
28 | RELRDAFREFDTNGDGRISVGELRAALKALLGERVSQREVDEILQDVDLNGDGLVDFEEFVRMMS | -0.015 ± 0.089
29 | RELRDAFREFDTNGDGRISVGELRAALKALLGERNSQREVDEILQDVDLNGDGLVDFEEFVRMMS | 0.091 ± 0.26
30 | RELRDAFREFDTNGDGRISVGELRAALKALLGERRSQREVDEILQDVDLNGDGLVDFEEFVRMMS | 0.096 ± 0.069
31 | RELRDAFREFDTNGDGRISVGELRAALKALLGERESQREVDEILQDVDLNGDGLVDFEEFVRMMS | -0.109 ± 0.12
32 | RELRDAFREFDTNGDGRISVGELRAALKALLGERQSQREVDEILQDVDLNGDGLVDFEEFVRMMS | 0.043 ± 0.12
33 | RELRDAFREFDTNGDGRISVGELRAALKALLGERCSQREVDEILQDVDLNGDGLVDFEEFVRMMS | -0.113 ± 0.18
34 | RELRDAFREFDTNGDGRISVGELRAALKALLGERMSQREVDEILQDVDLNGDGLVDFEEFVRMMS | -0.399 ± 0.13
35 | RELRDAFREFDTNGDGRISVGELRAALKALLGYRLSQREVDEILQDVDLNGDGLVDFEEFVRMMS | -0.119 ± 0.19
36 | RELRDAFREFDTNGDGRISVGELRAALKALLGARLSQREVDEILQDVDLNGDGLVDFEEFVRMMS | 0.002 ± 0.056
37 | RELRDAFREFDTNGDGRISVGELRAALKALLGFRLSQREVDEILQDVDLNGDGLVDFEEFVRMMS | -0.109 ± 0.16
38 | RELRDAFREFDTNGDGRISVGELRAALKALLGLRLSQREVDEILQDVDLNGDGLVDFEEFVRMMS | -0.195 ± 0.059
39 | RELRDAFREFDTNGDGRISVGELRAALKALLGDRLSQREVDEILQDVDLNGDGLVDFEEFVRMMS | 0.074 ± 0.092
40 | RELRDAFREFDTNGDGRISVGELRAALKALLGSRLSQREVDEILQDVDLNGDGLVDFEEFVRMMS | -0.045 ± 0.068
41 | RELRDAFREFDTNGDGRISVGELRAALKALLGTRLSQREVDEILQDVDLNGDGLVDFEEFVRMMS | -0.032 ± 0.056
42 | RELRDAFREFDTNGDGRISVGELRAALKALLGPRLSQREVDEILQDVDLNGDGLVDFEEFVRMMS | -0.007 ± 0.08

Row | Variant | abundance fitness
43 | RELRDAFREFDTNGDGRISVGELRAALKALLGIRLSQREVDEILQDVDLNGDGLVDFEEFVRMMS | -0.074 ± 0.16
44 | RELRDAFREFDTNGDGRISVGELRAALKALLGQRLSQREVDEILQDVDLNGDGLVDFEEFVRMMS | -0.009 ± 0.071
45 | RELRDAFREFDTNGDGRISVGELRAALKALLGCRLSQREVDEILQDVDLNGDGLVDFEEFVRMMS | 0.006 ± 0.094
46 | RELRDAFREFDTNGDGRISVGELRAALKALLGKRLSQREVDEILQDVDLNGDGLVDFEEFVRMMS | 0.037 ± 0.21
47 | RELRDAFREFDTNGDGRISVGELRAALKALLGMRLSQREVDEILQDVDLNGDGLVDFEEFVRMMS | -0.049 ± 0.12
48 | RELRDAFREFDTNGDGRISVGELRAALKALLGERLKQREVDEILQDVDLNGDGLVDFEEFVRMMS | 0.047 ± 0.11
49 | RELRDAFREFDTNGDGRISVGELRAALKALLGERLGQREVDEILQDVDLNGDGLVDFEEFVRMMS | -0.093 ± 0.055
50 | RELRDAFREFDTNGDGRISVGELRAALKALLGERLHQREVDEILQDVDLNGDGLVDFEEFVRMMS | -0.564 ± 0.28
51 | RELRDAFREFDTNGDGRISVGELRAALKALLGERLFQREVDEILQDVDLNGDGLVDFEEFVRMMS | -0.085 ± 0.13
52 | RELRDAFREFDTNGDGRISVGELRAALKALLGERLEQREVDEILQDVDLNGDGLVDFEEFVRMMS | 0.024 ± 0.07
53 | RELRDAFREFDTNGDGRISVGELRAALKALLGERLIQREVDEILQDVDLNGDGLVDFEEFVRMMS | 0 ± 0.43
54 | RELRDAFREFDTNGDGRISVGELRAALKALLGERLAQREVDEILQDVDLNGDGLVDFEEFVRMMS | 0.041 ± 0.066
55 | RELRDAFREFDTNGDGRISVGELRAALKALLGERLLQREVDEILQDVDLNGDGLVDFEEFVRMMS | 0.025 ± 0.054
56 | RELRDAFREFDTNGDGRISVGELRAALKALKGERLSQREVDEILQDVDLNGDGLVDFEEFVRMMS | 0.134 ± 0.095
57 | RELRDAFREFDTNGDGRISVGELRAALKALIGERLSQREVDEILQDVDLNGDGLVDFEEFVRMMS | -0.061 ± 0.14
58 | RELRDAFREFDTNGDGRISVGELRAALKALRGERLSQREVDEILQDVDLNGDGLVDFEEFVRMMS | -0.043 ± 0.091
59 | RELRDAFREFDTNGDGRISVGELRAALKALPGERLSQREVDEILQDVDLNGDGLVDFEEFVRMMS | 0.028 ± 0.079
60 | RELRDAFREFDTNGDGRISVGELRAALKALVGERLSQREVDEILQDVDLNGDGLVDFEEFVRMMS | -0.048 ± 0.074
61 | RELRDAFREFDTNGDGRISVGELRAALKALGGERLSQREVDEILQDVDLNGDGLVDFEEFVRMMS | 0.076 ± 0.048
62 | RELRDAFREFDTNGDGRISVGELRAALKALMGERLSQREVDEILQDVDLNGDGLVDFEEFVRMMS | 0.169 ± 0.067
63 | RELRDAFREFDTNGDGRISVGELRAALKALYGERLSQREVDEILQDVDLNGDGLVDFEEFVRMMS | -0.064 ± 0.18

Row | Variant | abundance fitness
64 | RELRDAFREFDTNGDGRISVGELRAALKALWGERLSQREVDEILQDVDLNGDGLVDFEEFVRMMS | -0.26 ± 0.16
65 | RELRDAFREFDTNGDGRISVGELRAALKALHGERLSQREVDEILQDVDLNGDGLVDFEEFVRMMS | -0.021 ± 0.13
66 | RELRDAFREFDTNGDGRISVGELRAALKALQGERLSQREVDEILQDVDLNGDGLVDFEEFVRMMS | 0.086 ± 0.082
67 | RELRDAFREFDTNGDGRISVGELRAALKALTGERLSQREVDEILQDVDLNGDGLVDFEEFVRMMS | 0.074 ± 0.1
68 | RELRDAFREFDTNGDGRISVGELRAALKALLFERLSQREVDEILQDVDLNGDGLVDFEEFVRMMS | -0.275 ± 0.12
69 | RELRDAFREFDTNGDGRISVGELRAALKALLVERLSQREVDEILQDVDLNGDGLVDFEEFVRMMS | -0.429 ± 0.19
70 | RELRDAFREFDTNGDGRISVGELRAALKALLKERLSQREVDEILQDVDLNGDGLVDFEEFVRMMS | -0.206 ± 0.1
71 | RELRDAFREFDTNGDGRISVGELRAALKALLRERLSQREVDEILQDVDLNGDGLVDFEEFVRMMS | -0.258 ± 0.067
72 | RELRDAFREFDTNGDGRISVGELRAALKALLTERLSQREVDEILQDVDLNGDGLVDFEEFVRMMS | -0.526 ± 0.15
73 | RELRDAFREFDTNGDGRISVGELRAALKALLCERLSQREVDEILQDVDLNGDGLVDFEEFVRMMS | -0.514 ± 0.2
74 | RELRDAFREFDTNGDGRISVGELRAALKALLSERLSQREVDEILQDVDLNGDGLVDFEEFVRMMS | -0.453 ± 0.083
75 | RELRDAFREFDTNGDGRISVGELRAALKALLNERLSQREVDEILQDVDLNGDGLVDFEEFVRMMS | -0.246 ± 0.12
76 | RELRDAFREFDTNGDGRISVGELRAALKALLPERLSQREVDEILQDVDLNGDGLVDFEEFVRMMS | -0.026 ± 0.3
77 | RELRDAFREFDTNGDGRISVGELRAALKALLMERLSQREVDEILQDVDLNGDGLVDFEEFVRMMS | -0.567 ± 0.12
78 | RELRDAFREFDTNGDGRISVGELRAALKALLEERLSQREVDEILQDVDLNGDGLVDFEEFVRMMS | -0.522 ± 0.083
79 | RELRDAFREFDTNGDGRISVGELRAALKALLWERLSQREVDEILQDVDLNGDGLVDFEEFVRMMS | -0.282 ± 0.1
80 | RELRDAFREFDTNGDGRISVGELRAALKALLIERLSQREVDEILQDVDLNGDGLVDFEEFVRMMS | -0.438 ± 0.32
81 | RELRDAFREFDTNGDGRISVGELRAALKALLDERLSQREVDEILQDVDLNGDGLVDFEEFVRMMS | -0.29 ± 0.17
82 | RELRDAFREFDTNGDGRISVGELRAALKALLLERLSQREVDEILQDVDLNGDGLVDFEEFVRMMS | -0.64 ± 0.12
83 | RELRDAFREFDTNGDGRISVGELRAALKALLYERLSQREVDEILQDVDLNGDGLVDFEEFVRMMS | -0.269 ± 0.32
